Test results: IntAct's records for PubMed 20956287

B1: SH2 domain-containing protein 3C (Mus musculus), Q9QZS8-1 (parent)
chain: MTEMPKKTGRKFKFFKFKGLGSLSNLPRSFSLRRSSASASIRSCPEPDTFEATQDDMVTLPKSPPAYARSSDMYSHMGTMPRPNIKKAQKQQAVQKAQEVSRESHLVSRRLPEPPDLEAAKEAGEGTEALLEDTAPSAVEVDPMRELEDLTVDTEKEQVPGDVSPERTAAELEAAGDYVKFSKEKYILDSSPEKLHKELEEELKLSSTDLRSHAWYHGRIPREVSETLVQRNGDFLIRDSLTSLGDYVLTCRWHNQALHFKINKVVVKAGESYTHIRYLFEQESFDHVPALVRYHVGSRKAVSEQSGAIIYCPVNRTFPLRYLEASYGLSQGSSKTASPASPSGSKGSHMKRRSITMTDGLTTDKVTRSDGCPNSTSLPHPRDSIRNCALSMDQIPDLHSPLSPISESPSSPAYSTVTRVHAPSATPSTSAQPASPVARRSSEPQLCPGNTPKPPGESDRAPHASPSHTLCKASPSPSLSSYSDPDSGHYCQLQPPVRGSREQAAGETPRKARGSGERQKELLENGVSDGEWGKTFTVPVVEATSSFNLATFQSQLIPKENRPLEVALLRKVKELLSEVDARTLARHVTKVDCLVARILGVTKEMQTLMGVRWGMELLTLPHGRQLRLDLLERFHTMSIMLAVDILGCTGSAEERAALLHKTIQLAAELRGTMGNMFSFAAVMGALEMAQISRLEQTWMTLRQRHTEGAILYEKKLKPFLKSLNEGKEGPPLSNTTFPHVLPFITLLECDSAPAEGPEPWGSTEHGVEVVLAHLEAARTVAHHGGLYHTNAEVKLQGFQARPELLEVFSTEFQMRLLWGSQGANSSQAWRYEKFDKVLTALSHKLEPAIRSSEL
partner: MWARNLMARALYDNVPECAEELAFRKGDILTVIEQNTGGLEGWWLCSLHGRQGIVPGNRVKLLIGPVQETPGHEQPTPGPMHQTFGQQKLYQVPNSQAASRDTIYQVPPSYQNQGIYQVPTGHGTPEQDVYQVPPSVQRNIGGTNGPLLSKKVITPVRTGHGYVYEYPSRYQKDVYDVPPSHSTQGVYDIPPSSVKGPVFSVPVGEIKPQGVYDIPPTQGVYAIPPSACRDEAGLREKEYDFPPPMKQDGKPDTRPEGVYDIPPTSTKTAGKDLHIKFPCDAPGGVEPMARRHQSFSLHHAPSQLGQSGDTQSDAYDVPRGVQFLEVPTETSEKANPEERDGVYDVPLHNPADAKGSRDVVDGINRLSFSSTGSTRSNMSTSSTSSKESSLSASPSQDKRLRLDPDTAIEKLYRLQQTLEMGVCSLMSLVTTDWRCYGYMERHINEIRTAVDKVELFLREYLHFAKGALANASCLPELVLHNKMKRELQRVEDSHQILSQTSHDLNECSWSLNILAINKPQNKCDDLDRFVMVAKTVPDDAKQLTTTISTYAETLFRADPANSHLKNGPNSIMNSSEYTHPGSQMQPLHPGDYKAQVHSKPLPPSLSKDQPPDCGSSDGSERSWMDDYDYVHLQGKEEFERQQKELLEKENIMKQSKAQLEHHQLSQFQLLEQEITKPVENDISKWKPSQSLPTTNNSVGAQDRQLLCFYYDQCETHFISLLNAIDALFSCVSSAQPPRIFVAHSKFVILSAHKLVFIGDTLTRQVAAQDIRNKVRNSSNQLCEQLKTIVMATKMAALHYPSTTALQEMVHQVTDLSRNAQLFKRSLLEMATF

Variants of: B1
Settings: with casl_mouse Nedd9, O35177

effect of a mutation on the interaction | Variant
disrupting interaction | Y787E
